This is an account of results in publication PMC9171630 (Proceedings of the National Academy of Sciences of the …, 2022).

T1: KaiC^E357Q-AA (Synechococcus elongatus PCC 7942, UniProt Q79PF4 1-519, E357Q | S431A | T432A)
T1 sequence: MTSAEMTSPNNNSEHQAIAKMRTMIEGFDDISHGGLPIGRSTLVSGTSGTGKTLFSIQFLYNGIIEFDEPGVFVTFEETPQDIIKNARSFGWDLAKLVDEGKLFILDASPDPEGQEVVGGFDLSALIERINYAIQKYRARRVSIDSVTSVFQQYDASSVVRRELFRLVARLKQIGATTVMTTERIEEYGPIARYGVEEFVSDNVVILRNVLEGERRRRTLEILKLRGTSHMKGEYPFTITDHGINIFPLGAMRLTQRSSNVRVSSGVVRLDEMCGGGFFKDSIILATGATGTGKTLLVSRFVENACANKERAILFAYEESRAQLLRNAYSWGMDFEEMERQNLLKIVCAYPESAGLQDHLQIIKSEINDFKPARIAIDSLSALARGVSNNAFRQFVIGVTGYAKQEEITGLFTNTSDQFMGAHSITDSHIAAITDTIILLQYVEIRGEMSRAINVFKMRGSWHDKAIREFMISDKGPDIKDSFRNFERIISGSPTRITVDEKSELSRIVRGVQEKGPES

T2: KaiB–KaiC^Δ505-ST complex (preformed) ( | Synechococcus elongatus …, UniProt Q79PF5;Q79PF4)
T2 sequence 1: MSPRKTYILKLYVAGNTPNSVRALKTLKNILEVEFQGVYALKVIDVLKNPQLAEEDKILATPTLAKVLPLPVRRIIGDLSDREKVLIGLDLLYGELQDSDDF
T2 sequence 2: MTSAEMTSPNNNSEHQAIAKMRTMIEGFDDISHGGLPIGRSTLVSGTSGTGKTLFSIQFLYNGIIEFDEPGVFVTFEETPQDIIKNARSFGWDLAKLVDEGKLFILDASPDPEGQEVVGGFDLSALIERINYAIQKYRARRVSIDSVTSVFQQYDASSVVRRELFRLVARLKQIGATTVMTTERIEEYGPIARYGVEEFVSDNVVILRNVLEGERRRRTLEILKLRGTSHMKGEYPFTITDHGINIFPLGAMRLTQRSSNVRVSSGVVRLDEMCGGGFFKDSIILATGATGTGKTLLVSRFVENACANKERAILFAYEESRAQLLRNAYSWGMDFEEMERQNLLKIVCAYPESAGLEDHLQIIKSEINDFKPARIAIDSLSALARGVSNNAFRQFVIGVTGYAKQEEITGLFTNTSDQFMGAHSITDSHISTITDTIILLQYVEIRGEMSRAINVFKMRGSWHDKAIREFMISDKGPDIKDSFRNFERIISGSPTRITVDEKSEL

T3: KaiB–KaiC-ST complex (preformed for 48 h) ( | Synechococcus elongatus …, UniProt Q79PF5;Q79PF4)
T3 sequence 1: T2 sequence 1
T3 sequence 2: T1 sequence with Q357E, A431S, A432T

B1: S431A/T432A KaiC mutant (KaiC-AA) (enzyme)
chain: T1 sequence with Q357E
B2: KaiB (natural protein)
chain: T2 sequence 1
B3: KaiA (natural protein)
chain: MLSQIAICIWVESTAILQDCQRALSADRYQLQVCESGEMLLEYAQTHRDQIDCLILVAANPSFRAVVQQLCFEGVVVPAIVVGDRDSEDPDEPAKEQLYHSAELHLGIHQLEQLPYQVDAALAEFLRLAPVETMADHIMLMGANHDPELSSQQRDLAQRLQERLGYLGVYYKRDPDRFLRNLPAYESQKLHQAMQTSYREIVLSYFSPNSNLNQSIDNFVNMAFFADVPVTKVVEIHMELMDEFAKKLRVEGRSEDILLDYRLTLIDVIAHLCEMYRRSIPRET

Positions count from the first letter of the chain named. In names and notes the source's numbering stands.

Data set [1] concerns the molecule itself. Kind of data set: crystal structure.
The target of data set [2] is T1, KaiC^E357Q-AA. Kind of data set: native gel or EMSA. Background: Mobility shift assays separate free from complexed probe on a gel.
Data set [3] has as its target B3. Kind of data set: SEC-MALS. On the technique in general: SEC sorts molecules by how far they enter the pores of the column.
Data set [4] concerns the target T2, KaiB–KaiC^Δ505-ST complex (preformed). As to the kind of experiment: SEC-MALS.
Data set [5] deals with T3, KaiB–KaiC-ST complex (preformed for 48 …). Kind of data set: SEC-MALS.

As usually defined, the stoichiometry N is a count of units in the complex or per binding partner. B1: the “stoichiometry N” value in data set [1] turned out to be 6.
On to B2, for which the binding result in data set [2] and in data set [3] was “binds” each time.
For B3, the binding result in data set [4] and in data set [5] was “binds” in each case.
